In assay [1] the target is T1, human CD33 (human, UniProt P20138 18-364).
T1 construct: whole, on cells; The target is CD33 on CD33+ tumor cell lines; also called CD33 on MOLM-13, Kasumi-1, OCI-AML-3 and Kasumi-3 cells
Nature of the assay: FACS binding to MOLM-13 tumor cell line (CD33+). Background: In flow cytometry, cells or beads pass a laser one at a time.

The target in assay [2] is T1, human CD33. Kind of assay: FACS binding to Kasumi-1 tumor cell line (CD33+).
For assay [3], the target named is T1, human CD33. Kind of assay: FACS binding to OCI-AML-3 tumor cell line (CD33+).

T1 sequence (P20138 18-364): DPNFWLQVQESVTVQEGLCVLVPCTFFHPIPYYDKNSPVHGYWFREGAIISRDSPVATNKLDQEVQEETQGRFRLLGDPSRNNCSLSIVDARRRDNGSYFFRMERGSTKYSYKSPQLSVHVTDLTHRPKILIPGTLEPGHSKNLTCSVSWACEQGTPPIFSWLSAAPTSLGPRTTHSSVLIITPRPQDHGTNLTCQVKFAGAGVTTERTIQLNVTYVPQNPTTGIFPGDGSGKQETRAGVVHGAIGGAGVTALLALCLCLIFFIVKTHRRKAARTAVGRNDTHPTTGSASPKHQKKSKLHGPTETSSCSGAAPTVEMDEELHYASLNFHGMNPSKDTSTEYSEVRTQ

B1: anti-CD33 antibody (clone C33B904) (antibody, V domains shown)
VH: EVQLVESGGGLVQPGRSLRLSCAASGFTFDDYAMHWVRQAPGKGLEWVSGIGWSGGSIVYADSVKGRFTISRDNAKNSLYLQMNSLRAEDTALYYCAKDSPYGDFFDYWGQGTLVTVSS
VL: DIVMTQSPDSLAVSLGERATINCKSSQTVFYSSNNKNYLAWYQQKPGQPPKLLISWASTRKSGVPDRFSGSGSGTDFTLTVSSLQAEDVAVYYCQHYYSTPYTFGQGTKLEIK
notes: also called anti-CD33 clone C33B904; anti-CD33 mAb
For B1, the EC50 worked out at 134 nM in assay [1], 82.2 nM in assay [2] and 16.4 nM in assay [3].

The term EC50 denotes the concentration needed to bring the measured effect to its halfway point. Read a high EC50 as a need for much substance.
